Measurements taken from patent US20200087400A1 (EUREKA THERAPEUTICS, published 2020).

B1: PSA146/HLA-A*02:01-specific scFv phage clone #26 (scFv, V domains shown)
VH: QVQLVQSGAEVKKPGASVKVSCKTSGYTFTNYGISWVRQAPGQGLEWMGWISAYNGNTNYAQNLQGRVTMTTDTSTSTAYMELRSLRSDDTAVYYCARSSYYGYLSDGWGQGTLVTVSS
VL: LPVLTQPPSASGTPGQRVTISCSGSSSNIGTNYVYWYQQLPGTAPKLLIYSNNQRPSGVPDRFSGSKSGTSASLAISGLRSEDEADYYCAAWDDSLSGLYVFGTGTKVTVLG
B2: PSA146/HLA-A*02:01-specific scFv phage clone #20 (scFv, V domains shown)
VH: EVQLVQSGAEVKKPGESLKISCKGSGYSFTSYRIGWVRQMPGKGLEWMGIIYPGDSDTRYSPSFQGQVTISADKSISTAYLQWSSLKASDTAMYYCARWGLSWDGWGVTDYWGQGTLVTVSS
VL: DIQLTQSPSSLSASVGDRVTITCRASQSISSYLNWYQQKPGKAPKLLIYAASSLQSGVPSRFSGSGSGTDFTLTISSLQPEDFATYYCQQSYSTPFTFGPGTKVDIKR
B3: PSA146/HLA-A*02:01-specific scFv phage clone #22 (scFv, V domains shown)
VH: EVQLVQSGAEVKKPGESLKISCKGSGYSFTSYWIGWVRQMPGKGLEWMGRIDPSDSYTNYSPSFQGHVTISADKSISTAYLQWSSLKASDTAMYYCARSFGAGYDSWGQGTLVTVSS
VL: QSALTQPASVSGSPGQSITISCTGTSSDVGGYNYVSWYQQHPGKAPKLMIYDVSKRPSGVSNRFSGSKSGNTASLTISGLQAEDEADYYCSSYTSSSRYVFGTGTKVTVLG
B4: PSA146/HLA-A*02:01-specific scFv phage clone #24 (scFv, V domains shown)
VH: QVQLVQSGAEVKKPGASVKVSCKASGYTFTSYYMHWVRQAPGKGLEWMGGFDPEDGETIYAQKFQGRVTMTEDTSTDTAYMELSSLRSEDTAVYYCARYPWDHWGQGTLVTVSS
VL: QAVVTQEPSLTVSPGGTVTLTCASSTGAVTSGYYPNWFQQKPGQAPRPLIYSTNNKHSWTPARFSGSLLGGKAALTLSGVQPEDEAEYYCLLYYGGQGVFGGGTKLTVLG
B5: PSA146/HLA-A*02:01-specific scFv phage clone #21 (scFv, V domains shown)
VH: QVQLVQSGAEVKKPGASVKVSCKASGYTFTSYYMHWVRQAPGKGLEWMGGFDPEDGETIYAQKFQGRVTMTEDTSTDTAYMELSSLRSEDTAVYYCARYNYDTWGQGTLVTVSS
VL: QAVVTQEPSLTVSPGGTVTLTCASSTGTVTSTYYPNWFQQKPGQAPRALIYSTSNRHSWTPARFSGSLLGGKAALTVSGVQPDDEAEYYCLVFYGGVWVFGGGTKLTVLG

Assays:
[1] = target: T1, PSA 146-154 peptide/HLA-A*02:01 complex on the cell surface (human); assay: flow cytometry, phage on T2 cells, anti-M13 + R-PE anti-mouse IgG
T1 construct: also called PSA146/HLA-A*02:01; PSA146-loaded T2 cells
Text: (§1) Binding of the phage clones was detected by HRP-conjugated anti-M13 antibodies and developed using HRP substrate. The absorbance was read at 450 nm. […] Then, unique antibody clones were identified through DNA sequencing of ELISA-positive clones. […] T2 cells loaded with different peptides and β2M were first stained with purified scFv phage clones, followed by staining with a mouse anti-M13 mAb, and finally R-PE conjugated horse anti-mouse IgG from Vector Labs. Each step of the staining was performed for between 30-60 minutes on ice and the cells were washed twice between stainings. All 16 clones recognized PSA146-loaded T2 cells specifically. FIG. 3 provides examples of PSA146/HLA-A*02:01 specific phage clone binding to peptide-loaded T2 cells through FACS. […] The negative control scFv phage clone presents a human antibody previously found not to bind any cell-surface human antigens.
(§2) To identify additional PSA146/HLA-A*02:01 specific phage clones.

[2] = target: T2, control peptide A2E-19/HLA-A*02:01 complex on T2 cells (member of the P19 mixture) (human); assay: flow cytometry, phage on T2 cells
T2 construct: Loaded on T2 cells as part of the mixture of 19 control peptides
Text: as §1, §2

[3] = target: T3, control peptide A2E-23/HLA-A*02:01 complex on T2 cells (member of the P19 mixture) (human); assay: flow cytometry, phage on T2 cells
T3 construct: Loaded on T2 cells as part of the mixture of 19 control peptides
Text: as §1, §2

[4] = target: T4, control peptide A2E-4/HLA-A*02:01 complex on T2 cells (member of the P19 mixture) (human); assay: flow cytometry, phage on T2 cells
T4 construct: Loaded on T2 cells as part of the mixture of 19 control peptides
Text: as §1, §2

[5] = target: T5, control peptide A2E-5/HLA-A*02:01 complex on T2 cells (member of the P19 mixture) (human); assay: flow cytometry, phage on T2 cells
T5 construct: Loaded on T2 cells as part of the mixture of 19 control peptides
Text: as §1, §2

[6] = target: T6, control peptide A2E-14/HLA-A*02:01 complex on T2 cells (member of the P19 mixture) (human); assay: flow cytometry, phage on T2 cells
T6 construct: Loaded on T2 cells as part of the mixture of 19 control peptides
Text: as §1, §2

[7] = target: T7, control peptide A2E-9/HLA-A*02:01 complex on T2 cells (member of the P19 mixture) (human); assay: flow cytometry, phage on T2 cells
T7 construct: Loaded on T2 cells as part of the mixture of 19 control peptides
Text: as §1, §2

[8] = target: T8, control peptide A2E-17/HLA-A*02:01 complex on T2 cells (member of the P19 mixture) (human); assay: flow cytometry, phage on T2 cells
T8 construct: Loaded on T2 cells as part of the mixture of 19 control peptides
Text: as §1, §2

[9] = target: T9, control peptide A2E-3/HLA-A*02:01 complex on T2 cells (member of the P19 mixture) (human); assay: flow cytometry, phage on T2 cells
T9 construct: Loaded on T2 cells as part of the mixture of 19 control peptides
Text: as §1, §2

[10] = target: T10, control peptide A2E-6/HLA-A*02:01 complex on T2 cells (member of the P19 mixture) (human); assay: flow cytometry, phage on T2 cells
T10 construct: Loaded on T2 cells as part of the mixture of 19 control peptides
Text: as §1, §2

[11] = target: T11, control peptide A2E-1/HLA-A*02:01 complex on T2 cells (member of the P19 mixture) (human); assay: flow cytometry, phage on T2 cells
T11 construct: Loaded on T2 cells as part of the mixture of 19 control peptides
Text: as §1, §2

[12] = target: T12, control peptide A2E-21/HLA-A*02:01 complex on T2 cells (member of the P19 mixture) (human); assay: flow cytometry, phage on T2 cells
T12 construct: Loaded on T2 cells as part of the mixture of 19 control peptides
Text: as §1, §2

[13] = target: T13, control peptide A2E-11/HLA-A*02:01 complex on T2 cells (member of the P19 mixture) (human); assay: flow cytometry, phage on T2 cells
T13 construct: Loaded on T2 cells as part of the mixture of 19 control peptides
Text: as §1, §2

[14] = target: T14, control peptide A2E-10/HLA-A*02:01 complex on T2 cells (member of the P19 mixture) (human); assay: flow cytometry, phage on T2 cells
T14 construct: Loaded on T2 cells as part of the mixture of 19 control peptides
Text: as §1, §2

[15] = target: T15, control peptide A2E-7/HLA-A*02:01 complex on T2 cells (member of the P19 mixture) (human); assay: flow cytometry, phage on T2 cells
T15 construct: Loaded on T2 cells as part of the mixture of 19 control peptides
Text: as §1, §2

[16] = target: T16, control peptide A2E-8/HLA-A*02:01 complex on T2 cells (member of the P19 mixture) (human); assay: flow cytometry, phage on T2 cells
T16 construct: Loaded on T2 cells as part of the mixture of 19 control peptides
Text: as §1, §2

[17] = target: T17, control peptide A2E-15/HLA-A*02:01 complex on T2 cells (member of the P19 mixture) (human); assay: flow cytometry, phage on T2 cells
T17 construct: Loaded on T2 cells as part of the mixture of 19 control peptides
Text: as §1, §2

[18] = target: T18, control peptide A2E-13/HLA-A*02:01 complex on T2 cells (member of the P19 mixture) (human); assay: flow cytometry, phage on T2 cells
T18 construct: Loaded on T2 cells as part of the mixture of 19 control peptides
Text: as §1, §2

[19] = target: T19, control peptide A2E-16/HLA-A*02:01 complex on T2 cells (member of the P19 mixture) (human); assay: flow cytometry, phage on T2 cells
T19 construct: Loaded on T2 cells as part of the mixture of 19 control peptides
Text: as §1, §2

[20] = target: T20, control peptide A2E-2/HLA-A*02:01 complex on T2 cells (member of the P19 mixture) (human); assay: flow cytometry, phage on T2 cells
T20 construct: Loaded on T2 cells as part of the mixture of 19 control peptides
Text: as §1, §2

| Binder | binding result [1] | binding result [2] | binding result [3] | binding result [4] | binding result [5] | binding result [6] | binding result [7] | binding result [8] | binding result [9] | binding result [10] | binding result [11] | binding result [12] | binding result [13] | binding result [14] | binding result [15] | binding result [16] | binding result [17] | binding result [18] | binding result [19] | binding result [20] |
| --- | --- | --- | --- | --- | --- | --- | --- | --- | --- | --- | --- | --- | --- | --- | --- | --- | --- | --- | --- | --- |
| B1 | binds | no binding | no binding | no binding | no binding | no binding | no binding | no binding | no binding | no binding | no binding | no binding | no binding | no binding | no binding | no binding | no binding | no binding | no binding | no binding |
| B2 | binds | no binding | no binding | no binding | no binding | no binding | no binding | no binding | no binding | no binding | no binding | no binding | no binding | no binding | no binding | no binding | no binding | no binding | no binding | no binding |
| B3 | binds | – | – | – | – | – | – | – | – | – | no binding | – | – | – | – | – | – | – | – | – |
| B4 | binds | no binding | no binding | no binding | no binding | no binding | no binding | no binding | no binding | no binding | no binding | no binding | no binding | no binding | no binding | no binding | no binding | no binding | no binding | no binding |
| B5 | binds | no binding | no binding | no binding | no binding | no binding | no binding | no binding | no binding | no binding | no binding | no binding | no binding | no binding | no binding | no binding | no binding | no binding | no binding | no binding |
